What all share (assay): ITC
One experiment concerns the target T1, NS1/MED25 ACID complex (human respiratory syncytial virus …, UniProt P0DOE9 1-139; Q71SY5 389-543).
T1 sequence (looked up) 1: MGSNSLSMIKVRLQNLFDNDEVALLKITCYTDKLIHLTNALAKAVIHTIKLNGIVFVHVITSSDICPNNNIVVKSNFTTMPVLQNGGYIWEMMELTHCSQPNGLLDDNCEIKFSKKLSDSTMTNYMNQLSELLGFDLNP
T1 sequence (looked up) 2: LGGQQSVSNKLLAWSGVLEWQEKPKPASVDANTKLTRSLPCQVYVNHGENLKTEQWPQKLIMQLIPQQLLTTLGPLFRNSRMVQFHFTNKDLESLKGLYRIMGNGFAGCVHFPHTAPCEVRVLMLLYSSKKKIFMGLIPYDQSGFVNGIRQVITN

The target in experiment [1] is T2, hMED25 ACID (389-543) (human, UniProt Q71SY5 389-543).
T2 sequence (looked up): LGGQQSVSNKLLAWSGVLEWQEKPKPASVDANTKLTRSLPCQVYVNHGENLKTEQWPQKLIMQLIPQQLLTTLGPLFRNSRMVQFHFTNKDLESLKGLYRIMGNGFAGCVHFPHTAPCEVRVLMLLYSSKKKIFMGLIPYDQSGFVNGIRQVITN

The target in experiment [2] is T2, hMED25 ACID (389-543). This is another data set of the same source.
A further experiment deals with T3, MED25 ACID I537A/R538A (human, UniProt Q71SY5 389-543, I537A | R538A).
T3 sequence (looked up): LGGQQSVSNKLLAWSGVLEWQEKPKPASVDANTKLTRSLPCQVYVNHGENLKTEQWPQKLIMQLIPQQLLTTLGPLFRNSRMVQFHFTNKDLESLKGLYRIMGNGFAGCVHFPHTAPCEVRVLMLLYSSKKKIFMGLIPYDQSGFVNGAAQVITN

A further experiment has as its target T4, MED25 ACID I541A/T542A (human, UniProt Q71SY5 389-543, I541A | T542A).
T4 sequence (looked up): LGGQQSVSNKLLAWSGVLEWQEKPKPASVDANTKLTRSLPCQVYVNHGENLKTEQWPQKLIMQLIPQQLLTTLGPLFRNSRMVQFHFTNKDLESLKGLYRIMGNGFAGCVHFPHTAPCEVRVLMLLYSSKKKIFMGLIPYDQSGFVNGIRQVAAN

Where two headings read alike, the source gives them in different places.

B1: hATF3 bZIP (88-149) (domain or fragment, human, UniProt P18847 88-149, looked up)
chain: RKKRRRERNKIAAAKCRNKKKEKTECLQKESEKLESVNAELKAQIEELKNEKQHLIYMLNLH
For the molecule B1, the equilibrium dissociation constant (Kd) with NS1/MED25 ACID complex was 3080 ± 1320 nM; in the experiment with hMED25 ACID (389-543) [1], 1290 ± 321 nM.

B2: NS1 E110A (natural protein, human respiratory syncytial virus (hRSV), UniProt P0DOE9 1-139, looked up)
chain: MGSNSLSMIKVRLQNLFDNDEVALLKITCYTDKLIHLTNALAKAVIHTIKLNGIVFVHVITSSDICPNNNIVVKSNFTTMPVLQNGGYIWEMMELTHCSQPNGLLDDNCAIKFSKKLSDSTMTNYMNQLSELLGFDLNP
In turn, B2 gave an equilibrium dissociation constant (Kd) with hMED25 ACID (389-543) [2] of 1740 ± 370 nM.

B3: hRSV NS1 (1-139) (natural protein, human respiratory syncytial virus (hRSV), UniProt P0DOE9 1-139, looked up)
chain: MGSNSLSMIKVRLQNLFDNDEVALLKITCYTDKLIHLTNALAKAVIHTIKLNGIVFVHVITSSDICPNNNIVVKSNFTTMPVLQNGGYIWEMMELTHCSQPNGLLDDNCEIKFSKKLSDSTMTNYMNQLSELLGFDLNP
For B3, the Kd in the experiment with MED25 ACID I537A/R538A is 82 ± 10 nM; with MED25 ACID I541A/T542A, 116 ± 30 nM; in the experiment with hMED25 ACID (389-543) [2], 41 ± 5 nM.

B4: NS1 Y125A (natural protein, human respiratory syncytial virus (hRSV), UniProt P0DOE9 1-139, looked up)
chain: MGSNSLSMIKVRLQNLFDNDEVALLKITCYTDKLIHLTNALAKAVIHTIKLNGIVFVHVITSSDICPNNNIVVKSNFTTMPVLQNGGYIWEMMELTHCSQPNGLLDDNCEIKFSKKLSDSTMTNAMNQLSELLGFDLNP
Molecule B4 registered a dissociation constant (Kd) with hMED25 ACID (389-543) [2] of 182 ± 20 nM.

B5: NS1 N85A (natural protein, human respiratory syncytial virus (hRSV), UniProt P0DOE9 1-139, looked up)
chain: MGSNSLSMIKVRLQNLFDNDEVALLKITCYTDKLIHLTNALAKAVIHTIKLNGIVFVHVITSSDICPNNNIVVKSNFTTMPVLQAGGYIWEMMELTHCSQPNGLLDDNCEIKFSKKLSDSTMTNYMNQLSELLGFDLNP
In the experiment with hMED25 ACID (389-543) [2], B5 had a dissociation constant (Kd) of 41 ± 8 nM.

B6: NS1 ΔDLNP (domain or fragment, human respiratory syncytial virus (hRSV), UniProt P0DOE9 1-135, looked up)
chain: MGSNSLSMIKVRLQNLFDNDEVALLKITCYTDKLIHLTNALAKAVIHTIKLNGIVFVHVITSSDICPNNNIVVKSNFTTMPVLQNGGYIWEMMELTHCSQPNGLLDDNCEIKFSKKLSDSTMTNYMNQLSELLGF
B6: in the experiment with hMED25 ACID (389-543) [2], the binding result is on record as “binds”.

Values taken from article PMC11933697 (Nature Communications, 2025).
